According to patent US20210063414A1, “METHODS FOR PREVENTING AND/OR TREATING BONE LOSS CONDITIONS BY MODULATING IRISIN” (Dana-Farber Cancer Institute, Inc., priority 2018, published 2021):

Biological target: T1, MLO-Y4 cell surface proteins (Mus musculus, UniProt O88492)
T1 construct: endogenous in cells; host or cells: MLO-Y4
T1 sequence (O88492 1-1403): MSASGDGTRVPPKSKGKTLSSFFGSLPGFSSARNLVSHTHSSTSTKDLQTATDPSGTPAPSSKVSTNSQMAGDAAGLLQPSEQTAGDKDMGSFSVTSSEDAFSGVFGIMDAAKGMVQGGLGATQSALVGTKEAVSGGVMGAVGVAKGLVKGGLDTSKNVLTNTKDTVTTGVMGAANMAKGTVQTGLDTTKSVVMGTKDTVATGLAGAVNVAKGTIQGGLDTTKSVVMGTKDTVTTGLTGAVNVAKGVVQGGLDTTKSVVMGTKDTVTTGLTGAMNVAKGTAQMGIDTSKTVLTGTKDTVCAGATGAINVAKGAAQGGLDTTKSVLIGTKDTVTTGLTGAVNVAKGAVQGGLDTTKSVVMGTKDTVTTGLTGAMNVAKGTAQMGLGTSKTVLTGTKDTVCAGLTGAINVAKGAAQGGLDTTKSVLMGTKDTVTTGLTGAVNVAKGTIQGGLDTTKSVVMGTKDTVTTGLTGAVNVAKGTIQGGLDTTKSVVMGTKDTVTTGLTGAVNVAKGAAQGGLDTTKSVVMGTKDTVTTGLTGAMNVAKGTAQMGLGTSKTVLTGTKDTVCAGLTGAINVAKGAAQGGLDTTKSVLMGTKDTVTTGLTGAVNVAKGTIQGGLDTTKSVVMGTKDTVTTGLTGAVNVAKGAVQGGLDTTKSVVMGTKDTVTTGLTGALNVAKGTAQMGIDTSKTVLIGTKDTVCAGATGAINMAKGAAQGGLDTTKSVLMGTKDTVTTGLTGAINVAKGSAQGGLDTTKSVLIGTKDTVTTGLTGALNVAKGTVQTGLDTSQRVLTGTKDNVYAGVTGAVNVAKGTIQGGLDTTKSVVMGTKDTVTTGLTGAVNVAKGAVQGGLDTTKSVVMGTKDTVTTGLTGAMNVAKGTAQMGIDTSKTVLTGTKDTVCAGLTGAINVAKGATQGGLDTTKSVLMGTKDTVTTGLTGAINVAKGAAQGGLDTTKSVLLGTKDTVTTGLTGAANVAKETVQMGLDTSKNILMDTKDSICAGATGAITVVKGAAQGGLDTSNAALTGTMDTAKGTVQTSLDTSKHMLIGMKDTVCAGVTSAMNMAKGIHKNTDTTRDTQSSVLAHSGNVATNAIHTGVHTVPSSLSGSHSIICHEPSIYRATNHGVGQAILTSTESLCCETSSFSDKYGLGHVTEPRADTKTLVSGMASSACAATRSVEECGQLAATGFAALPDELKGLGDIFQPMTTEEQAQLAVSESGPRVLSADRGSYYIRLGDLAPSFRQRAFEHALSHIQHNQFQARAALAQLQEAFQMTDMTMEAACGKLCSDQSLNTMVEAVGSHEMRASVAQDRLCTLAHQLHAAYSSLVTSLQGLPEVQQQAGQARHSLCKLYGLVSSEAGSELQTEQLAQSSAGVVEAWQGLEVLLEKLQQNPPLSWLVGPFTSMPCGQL
Assay: Crosslinking/co-immunoprecipitation/mass spectrometry (TMT quantitative proteomics) to identify irisin receptors
Type: binding
Conditions: co-precipitated protein Plin4 (PLIN4_MOUSE)
Outline: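 Mouse MLO-Y4 cells were switched to serum-free FreeStyle medium for 4 h, chilled, then exposed to 10 nM His-tagged irisin (or adipsin as control) for 20 min. Cells were crosslinked with 1.5 mM DTSSP (30 min, ice), and bound proteins were pulled down on Ni-NTA and eluted with 250 mM imidazole. Eluates were separated by SDS-PAGE, trypsin-digested in gel, TMT 6-plex labelled and quantified by MS3-based LC-MS/MS on an Orbitrap Fusion Lumos.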

B1: irisin: secreted cleaved form of FNDC5; recombinant human/mouse irisin with C-terminal his tag produced in HEK293 cells (protein)
chain: DSPSAPVNVTVRHLKANSAVVSWDVLEDEVVIGFAISQQKKDVRMLRFIQEVNTTTRSCALWDLEEDTEYIVHVQAISIQGQSPASEPVLFKTPREAEKMASKNKDEVTMKE
modifications: left off: small tags and cut ends
notes: secreted cleaved form of FNDC5; recombinant human/mouse irisin with C-terminal his tag produced in HEK293 cells
In the case of B1, the TMT signal-to-noise ratio is reported as 18.9196 and the “irisin/adipsin TMT signal-to-noise ratio” value is reported as 0.169.
